Experimental data: patent US20230312724A1 (KADMON, published 2023)

T1: human B7-H4-his (human, UniProt Q7Z7D3 25-259)
T1 construct: also called hB7-H4-his; hB7-H4 his; not shown: his tag
T1 sequence: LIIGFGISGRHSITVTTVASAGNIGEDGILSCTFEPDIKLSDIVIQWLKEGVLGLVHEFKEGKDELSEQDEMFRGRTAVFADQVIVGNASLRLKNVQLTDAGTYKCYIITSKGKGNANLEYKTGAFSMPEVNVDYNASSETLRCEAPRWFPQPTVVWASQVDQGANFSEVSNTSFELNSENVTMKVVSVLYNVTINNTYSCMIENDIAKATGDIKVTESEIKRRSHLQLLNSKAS

T2: mouse B7-H4-his (mouse, UniProt Q7TSP5 25-257)
T2 construct: also called mB7-H4-his; mB7-H4-His; not shown: his tag
T2 sequence: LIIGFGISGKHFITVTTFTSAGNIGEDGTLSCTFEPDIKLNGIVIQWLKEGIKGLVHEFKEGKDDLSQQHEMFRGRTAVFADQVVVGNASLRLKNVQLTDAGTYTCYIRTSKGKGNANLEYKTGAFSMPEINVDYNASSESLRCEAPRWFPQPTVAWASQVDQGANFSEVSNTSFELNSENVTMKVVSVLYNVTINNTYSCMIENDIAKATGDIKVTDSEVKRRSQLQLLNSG

T3: mB7-H4 (soluble mouse B7-H4, construct not named) (mouse, UniProt Q7TSP5 25-257, limits assumed)
T3 sequence: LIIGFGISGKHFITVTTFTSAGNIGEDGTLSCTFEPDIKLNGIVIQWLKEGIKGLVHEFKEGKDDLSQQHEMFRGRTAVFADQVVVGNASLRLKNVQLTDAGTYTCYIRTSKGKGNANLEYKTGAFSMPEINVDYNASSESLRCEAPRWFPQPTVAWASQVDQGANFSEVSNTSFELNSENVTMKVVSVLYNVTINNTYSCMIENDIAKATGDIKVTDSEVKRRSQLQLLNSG

T4: mouse B7-H4 expressed on cells (mouse, UniProt Q7TSP5 25-257)
T4 construct: also called cellular mB7-H4; mB7-H4/CT26
T4 sequence: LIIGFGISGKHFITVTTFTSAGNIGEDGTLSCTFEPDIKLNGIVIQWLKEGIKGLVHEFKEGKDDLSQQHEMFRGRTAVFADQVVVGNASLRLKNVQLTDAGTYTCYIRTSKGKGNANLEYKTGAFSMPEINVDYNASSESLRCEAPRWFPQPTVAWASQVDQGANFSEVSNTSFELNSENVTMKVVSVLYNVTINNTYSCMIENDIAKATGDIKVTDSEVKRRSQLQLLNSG


Assays:
human B7-H4-Fc [1] = target: T5, human B7-H4-Fc (human); assay: SPR (Biacore)
T5 construct: also called hB7-H4-Fc; hB7-H4 Fc
Method: (§1) Surface plasmon resonance experiments were performed using a Biacore T200 instrument equipped with CM5 sensor chips. The system was equilibrated in running buffer HBS-EP pH 7.4. The ligands were immobilized using amine-coupling chemistry. The surfaces of flow cells one through four were activated for 5 min using an amine coupling kit at a flow rate of […]. The ligands (human B7-H4-Fc, human B7-H4-hism and mouse B7-H4-Fc; at a concentration of 5 μg/ml in 10 mM sodium acetate, pH 5.0) were immobilized at a density of 50-100 RU on flow cell 2, 3, 4 respectively. Flow cell 1 was left blank to serve as a reference surface. All flow cell surfaces were blocked with a 5 min injection of 1 M ethanolamine, pH 8.0. To collect kinetic binding data, the respective analyte (diluted in 1×HBS-EP buffer, pH 7.4) was injected over the four flow cells at concentrations of 100 nM to 0.1 nM at a flow rate of […] and at a temperature of 25° C. The protein complex was allowed to associate and dissociate for 180 seconds and 1000 or 1200 seconds, respectively. The surfaces were regenerated with a 30 second injection of 1.5 M NaCl/0.05 M NaOH. The data were fit to a simple 1:1 interaction model using the Langmuir fit option available within the Biaevaluaton software
(§2) The kinetics for binding of the different antibodies to their targets were examined using Biacore analysis.

human B7-H4-his = target: T1, human B7-H4-his; assay: SPR (Biacore)
Method: as §1, §2

mouse B7-H4-his = target: T2, mouse B7-H4-his; assay: SPR (Biacore)
Method: as §1, §2

human B7-H4-Fc [2] = target: T5, human B7-H4-Fc; assay: ELISA, coated hB7-H4-Fc
Method: (§3) ELISA experiments were performed to determine binding to hB7-H4-Fc (FIG. 4A), hB7-H4-his (FIG. 4B), hB7-H4 IgV domain (FIG. 4C), and mB7-H4 IgV domain (FIG. 4D). Flow cytrometry experiments were performed to determine binding to CHO cells expressing hB7-H4 (FIG. 4E) or mB7-H4 (FIG. 4F). […] A cross-reactive IgV binding antibody was used as a control.
(§4) About 1-2 μg/ml of human or mouse B7-H4-Fc (or his-tagged) was immobilized on ELISA plates (Immuno 2HB, Thermo scientific, cat #3455) at 4° C. overnight. After blocking the plates with 3% PBS+milk, serial diluted antibodies were added to the blocked plates and incubated at RT for 1-1.5 h. After washing the plates with PBS-T (0.05%), horse radish peroxidase (HRP)-conjugated antibody targeting the hFab was added to the plate. Signals were developed by adding 3,3′,5,5′-Tetramethylbenzidine (TMB (followed 1N of H₂SO₄ to stop the reaction. The OD at 450 nm was read by ELISA plate reader (Infinite M1000 from TECAN). GraphPad from Prism was used to plot OD450 vs. antibody concentration curve and to calculate the EC50 values.

[3] = target: T3, mB7-H4 (soluble mouse B7-H4, construct …); assay: summary of ELISA and flow cytometry
[4] = target: T6, IgV domain of mouse B7-H4-Fc (mouse; human); assay: ELISA, coated mB7-H4 IgV domain
T6 construct: also called mB7-H4 IgV domain
Method: as §3, §4

mouse B7-H4-Fc [5] = target: T7, mouse B7-H4-Fc (mouse; human); assay: ELISA, coated mB7-H4-Fc (title on the sheet: Binding to mB7H4-Fc)
T7 construct: also called mB7-H4-Fc; mB7-H4-hFc
Method: as §3, §4

[6] = target: T4, mouse B7-H4 expressed on cells; assay: flow cytometry, CHO cells expressing mB7-H4
Method: (§5) ELISA experiments were performed to determine binding to hB7-H4-Fc (FIG. 3A), hB7-H4-his (FIG. 3B), mB7-H4-Fc (FIG. 3C), and hB7-H4 IgV domain (FIG. 3D). Flow cytometry experiments were performed to determine binding to CHO cells expressing hB7-H4 (FIG. 3E) or mB7-H4 (FIG. 3F).
Cells were harvested, washed once, and then re-suspended to the concentration of 1×10⁶ cells/ml in ice cold FACS Buffer. 25 μl of cell suspension was added to each well of a 96-well round-bottom microliter plate. Serially diluted antibodies or fusion proteins were added to each well and incubated for 1 hour at 4° C. Cells were washed three times by centrifugation at 1500 rpm for 5 minutes, and then stained with secondary antibody (1:200 dilution) for 30 min at 4° C. in the dark. Cells were washed once, re-suspended in 100 μl PBS buffer and then analyzed using Guava Flow Cytometry EasyCyte system.

mouse B7-H4-Fc [7] = target: T7, mouse B7-H4-Fc; assay: ELISA, coated mB7-H4-Fc
Method: as §5, §4

T5 sequence (chain, as listed by the source): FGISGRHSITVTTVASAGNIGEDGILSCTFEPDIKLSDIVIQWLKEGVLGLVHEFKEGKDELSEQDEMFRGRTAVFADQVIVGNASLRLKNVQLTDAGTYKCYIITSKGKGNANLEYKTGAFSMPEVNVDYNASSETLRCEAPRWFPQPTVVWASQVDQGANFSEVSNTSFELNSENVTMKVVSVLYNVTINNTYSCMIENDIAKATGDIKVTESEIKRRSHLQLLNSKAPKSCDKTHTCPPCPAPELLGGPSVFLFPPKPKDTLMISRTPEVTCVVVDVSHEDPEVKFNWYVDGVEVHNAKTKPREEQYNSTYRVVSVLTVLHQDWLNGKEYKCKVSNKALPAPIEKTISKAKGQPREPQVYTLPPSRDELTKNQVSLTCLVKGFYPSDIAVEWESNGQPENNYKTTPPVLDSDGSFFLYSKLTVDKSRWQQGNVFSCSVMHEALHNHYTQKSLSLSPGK
T7 sequence (chain, as listed by the source): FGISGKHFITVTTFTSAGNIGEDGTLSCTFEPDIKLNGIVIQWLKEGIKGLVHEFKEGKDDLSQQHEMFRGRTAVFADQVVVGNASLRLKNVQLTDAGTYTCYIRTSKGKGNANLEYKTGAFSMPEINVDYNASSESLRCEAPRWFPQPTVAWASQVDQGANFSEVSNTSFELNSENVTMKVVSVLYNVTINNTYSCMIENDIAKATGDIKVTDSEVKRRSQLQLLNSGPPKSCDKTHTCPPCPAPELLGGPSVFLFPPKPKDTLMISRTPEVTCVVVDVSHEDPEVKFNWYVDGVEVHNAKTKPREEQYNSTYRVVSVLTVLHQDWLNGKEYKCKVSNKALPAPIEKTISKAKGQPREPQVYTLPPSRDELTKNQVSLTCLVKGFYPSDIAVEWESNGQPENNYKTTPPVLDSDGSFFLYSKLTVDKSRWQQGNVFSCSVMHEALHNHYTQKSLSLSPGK
T6 sequence (chain, as listed by the source): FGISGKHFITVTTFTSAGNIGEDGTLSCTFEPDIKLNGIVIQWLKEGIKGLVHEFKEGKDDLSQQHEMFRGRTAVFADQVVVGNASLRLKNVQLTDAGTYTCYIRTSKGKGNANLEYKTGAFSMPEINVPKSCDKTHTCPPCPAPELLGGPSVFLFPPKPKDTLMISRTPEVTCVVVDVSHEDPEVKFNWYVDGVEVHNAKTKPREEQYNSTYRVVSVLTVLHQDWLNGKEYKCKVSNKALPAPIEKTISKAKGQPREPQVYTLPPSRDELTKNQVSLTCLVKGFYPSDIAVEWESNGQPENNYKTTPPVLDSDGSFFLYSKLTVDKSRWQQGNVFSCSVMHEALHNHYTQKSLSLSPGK

Kd (human B7-H4-Fc [1]) | Kd (human B7-H4-his) | binding result (mouse B7-H4-his) | EC50 (read off the curve) (human B7-H4-Fc [2]) | binding result [3] | binding result [4] | Binder | binding result (mouse B7-H4-Fc [5]) | binding result [6] | binding result (mouse B7-H4-Fc [7])
2.23 nM | 28.5 nM | no binding | ~0.009 µg/mL | no binding | no binding | 3D1/3D1 (antibody, human IgG1, V domains shown) VH: QVQLVQSGAEVKKPGSSVKVSCKASGYSFISYAITWVRQAPGQGLEWIGGINPIFGTAKYAQKFQGRVTITADESTSTAYMELSSLRSEDTAVYYCAKGQALIQHWGQGTLVTVSS VL: not shown | no binding (tested: log 0.3 ug/ml (about 2 ug/ml)) | – | –
10.9 nM | 6.3 nM | no binding | ~0.03 µg/mL | no binding | no binding | 6C3/6C3 (antibody, human IgG1, V domains shown, The VL holds a letter Z) VH: EVQLLESGGGLVQPGGSLRLSCAASGFTFSSYAMHWVRQAPGKGLEWVASISGTGFTTRYADSVKGRFTISRDNSKNTLYLQMNSLRAEDTAVYYCARGGWFRDTPVDYWGQGTLVTVSS VL: DIVMTQSPLSLPVTPGEPASISCRSSQSLLHSNGYNYLDWYLQKPGQSPQLLIYGASSLRSGVPDRFSGSGSGTDFTLKISRVEAZDVGVYYCMQASHWPPTFGQGTRLEIK | no binding (tested: log 0.3 ug/ml (about 2 ug/ml)) | no binding (tested: axis value -7 (log scale labelled nM)) | –
1.66 nM | 1.11 nM | no binding | – | no binding | – | 1F11/1F11 (antibody, human IgG1, V domains shown) VH: QVQLVQSGAEVKKPGSSVKVSCKASGDTFTTYQIHWVRQAPGQGLEWMGGIMPIFGTTKYAQNFQGRVTITADESTSTAYMELSSLRSEDTAVYYCARRNYGMDVWGQGTTVTVSS VL: not shown | – | no binding (tested: axis value -7 (log scale labelled nM)) | no binding (tested: axis value -8 (log scale labelled nM))
